Several values for one entry are separate records, joined by “and”; a condition that tells them apart may be missing. Equal values may be shown once.
Biological target: 猪伪狂犬病毒gE蛋白 (on inactivated pseudorabies virus) (pseudorabies virus (PRV))

B1: 抗猪伪狂犬病毒gE蛋白单克隆抗体 (antibody, V domains shown)
VH: EVQLQESAHELVKPGASVKIPCKASGYTFTDYNMHWVKQSLRKSLEWIGDIHPNNGGTIYNQKCMGKATLTVDKSSSTADMELRSLTSDDTAVYSCAREGIHCYGSCYVRYDLDYCRQGTTLTVSS
VL: DTVLTQSSASLAVSLCQRATISCKASQSVDHDGDSYMNWSQQRPSQSSTLLIYAASNLESGIPARFSCSGSRTDFTLNIHPVEEEDAATYYCQQT
In the case of B1, the OD450nm is reported as 2.59 OD450nm and 2.57 OD450nm and 2.62 OD450nm.
